In patent US20110311550A1 (Scripps Research, published 2011):

B1: MAb AR1A (antibody, V domains shown)
VH: LEQSGAEVKKPGSSVKVSCRASGSPYSSYTITWVRQAPGQGLEWMGGIILMTGKANYAQKFQGRVTITADRATATAYMEMSSLTSDDTAIYYCARDPYVYAGDDVRSLSRWGQGTPVIVSS
VL: not shown
notes: also called IgG1 of Fab B2
B2: N4 IgG (antibody, V domains shown)
VH: VQLLEQSGPEVKKPGDSLRISCKMSGDSLVTTWIGWVRQKPGQGLEWMGIINPGDSSTNIYPGDSATRYGPSFQGQVTISIDKSTSTAYLQWNNVKASDTGIYYCARHVPVPISGTFLWREREMHDFGYFDDWGQGTLVIVSS
VL: ELTLTQSPGTLSLSPGERATLSCRASQSVSNNYLAWYQQKPGQAPRLLIYGASSRATGIPDRFSGSGSGTGFTLIISRLEPEDFAVYYCQQYGSSSITFGQGTRLEIKR
notes: also called IgG N4
B3: MAb AR1B (antibody, V domains shown)
VH: LESGGGLVQPGGSLRLSCEASGYYFSSFAMSWVRQTPGKGLEWVSSIAGGTLGRTSYRDSVKGRFTISRDNSKNTVFLHMNNLRPEDTAVYYCAKDPLLFAGGPNWFDHWGQGTLVTVSS
VL: not shown
notes: also called IgG1 of Fab D1
B4: MAb AR3D (antibody, V domains shown)
VH: LEQSGAEVKKPGSSVKVSCKASGDTFRSYVITWARQAPGQGLEWMGAIIPFFGTTNLAQKFQGRVTITADESTKTVYMDLSSLRSDDTAVYYCAKAGDLSVGGVLAGGVPHLRHFDPWGQGTLVTVSS
VL: ELTQSPGTLSLSPGERATLSCRAGQTVASNSLAWYQHKPGQAPRLLIYGASIRASGIPDRFSGSGSGTDFTLTISRLEPEDFAVYYCQQYGLSSTFGQGTRLEIKR
notes: also called IgG1 of Fab L4
B5: MAb AR3C (antibody, V domains shown)
VH: LEQSGAEVKKPGSSVKVSCETSGGTLDNYALNWVRQAPGQGLEWIGGVVPLFGTTRNAQKFQGRVTISDDKSTGTGHMELRSLRSEDTAVYYCVRSVTPRYCGGGFCYGEFDYWGQGTLVTVSS
VL: ELTQSPATLSVSPGERATLSCRASQSVSSNLAWYQQKPGQAPRLLIYGASTRATGIPARFSGSGSGTEFTLTVSRLEPEDSAVYFCQQYYRSPLTFGGGTKVEIKR
notes: also called IgG1 of Fab H3
B6: MAb AR2A (antibody, V domains shown)
VH: LEQSGAEMKKPGASLKVSCKTSGYTFDDYGVTWVRQAPGQGLEWMGWISAYSGNTFYARKFQGRVTMTTDPSTRTAYMELRSLRSDDTAVYFCARDRGLAINGVVFPYFGLDVWGQGTTVTVSS
VL: ELTQSPVSLPVTPGEPASISCRSSQSLLHSNGNHYLDWYLQKPGQSPQLLMYLGSNRASGVPDRFSGSGSGTDFTLKISRVEAEDVGVYYCMQGLQTPWTFGQGTKVEIKR
notes: also called IgG1 of Fab G

How the values were obtained:
[1] = biological target: T1, vaccinia-expressed E1E2 complex, isolate HCV-1 (genotype 1a) (hepatitis C virus, isolate HCV-1, UniProt P26664 192-383; P26664 384-746); assay: competition ELISA on HCV-1 E1E2; competitor m4 (AR3A)
[2] = biological target: T1, vaccinia-expressed E1E2 complex, …; assay: competition ELISA on HCV-1 E1E2; competitor m24 (7/59)
[3] = biological target: T1, vaccinia-expressed E1E2 complex, …; assay: competition ELISA on HCV-1 E1E2; competitor m25 (9/27)
[4] = biological target: T1, vaccinia-expressed E1E2 complex, …; assay: competition ELISA on HCV-1 E1E2; competitor m26 (AP33)
[5] = biological target: T1, vaccinia-expressed E1E2 complex, …; assay: competition ELISA on HCV-1 E1E2; competitor m32 (AP320)
[6] = biological target: T1, vaccinia-expressed E1E2 complex, …; assay: competition ELISA on HCV-1 E1E2; competitor m35 (ALP98)
[7] = biological target: T1, vaccinia-expressed E1E2 complex, …; assay: competition ELISA on HCV-1 E1E2; competitor m19 (CBH-4B)
[8] = biological target: E1E2 complex (H77) with E2 mutation N623A (HCV genotype 1a, isolate H77, UniProt P27958 192-383; P27958 384-746); assay: ELISA, lectin-captured E1E2 lysate, Ab 1 ug/ml;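 also: E1E2 captured on Galanthus nivalis lectin-coated plates, bound antibody read out via HRP-linked secondary antibody with TMB colorimetric substrate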
[9] = biological target: E1E2 complex (H77) with E2 mutation Y624A (HCV genotype 1a, isolate H77, UniProt P27958 192-383; P27958 384-746); assay: ELISA, lectin-captured E1E2 lysate, Ab 1 ug/ml;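 also: E1E2 captured on Galanthus nivalis lectin-coated plates, bound antibody read out via HRP-linked secondary antibody with TMB colorimetric substrate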
[10] = biological target: E1E2 complex (H77) with E2 mutation R630A (HCV genotype 1a, isolate H77, UniProt P27958 192-383; P27958 384-746); assay: ELISA, lectin-captured E1E2 lysate, Ab 1 ug/ml;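 also: E1E2 captured on Galanthus nivalis lectin-coated plates, bound antibody read out via HRP-linked secondary antibody with TMB colorimetric substrate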
[11] = biological target: E1E2 complex (H77) with E2 mutation G634A (HCV genotype 1a, isolate H77, UniProt P27958 192-383; P27958 384-746); assay: ELISA, lectin-captured E1E2 lysate, Ab 1 ug/ml;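 also: E1E2 captured on Galanthus nivalis lectin-coated plates, bound antibody read out via HRP-linked secondary antibody with TMB colorimetric substrate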
[12] = biological target: E1E2 complex (H77) with E2 mutation E637A (HCV genotype 1a, isolate H77, UniProt P27958 192-383; P27958 384-746); assay: ELISA, lectin-captured E1E2 lysate, Ab 1 ug/ml
[13] = biological target: E1E2 complex (H77) with E2 mutation H638A (HCV genotype 1a, isolate H77, UniProt P27958 192-383; P27958 384-746); assay: ELISA, lectin-captured E1E2 lysate, Ab 1 ug/ml
[14] = biological target: E1E2 complex (H77) with E2 mutation R639A (HCV genotype 1a, isolate H77, UniProt P27958 192-383; P27958 384-746); assay: ELISA, lectin-captured E1E2 lysate, Ab 1 ug/ml
[15] = biological target: E1E2 complex (H77) with E2 mutation A643G (HCV genotype 1a, isolate H77, UniProt P27958 192-383; P27958 384-746); assay: ELISA, lectin-captured E1E2 lysate, Ab 1 ug/ml
[16] = biological target: E1E2 complex (H77) with E2 mutation T425A (HCV genotype 1a, isolate H77, UniProt P27958 192-383; P27958 384-746); assay: ELISA, lectin-captured E1E2 lysate, Ab 1 ug/ml
[17] = biological target: E1E2 complex (H77) with E2 mutation L427A (HCV genotype 1a, isolate H77, UniProt P27958 192-383; P27958 384-746); assay: ELISA, lectin-captured E1E2 lysate, Ab 1 ug/ml
[18] = biological target: E1E2 complex (H77) with E2 mutation N428A (HCV genotype 1a, isolate H77, UniProt P27958 192-383; P27958 384-746); assay: ELISA, lectin-captured E1E2 lysate, Ab 1 ug/ml
[19] = biological target: E1E2 complex (H77) with E2 mutation T435A (HCV genotype 1a, isolate H77, UniProt P27958 192-383; P27958 384-746); assay: ELISA, lectin-captured E1E2 lysate, Ab 1 ug/ml
[20] = biological target: E1E2 complex (H77) with E2 mutation G436A (HCV genotype 1a, isolate H77, UniProt P27958 192-383; P27958 384-746); assay: ELISA, lectin-captured E1E2 lysate, Ab 1 ug/ml
[21] = biological target: E1E2 complex (H77) with E2 mutation N448A (HCV genotype 1a, isolate H77, UniProt P27958 192-383; P27958 384-746); assay: ELISA, lectin-captured E1E2 lysate, Ab 1 ug/ml
[22] = biological target: E1E2 complex (H77) with E2 mutation H617A (HCV genotype 1a, isolate H77, UniProt P27958 192-383; P27958 384-746); assay: ELISA, lectin-captured E1E2 lysate, Ab 1 ug/ml

Binder | % residual binding [1] [%] | % residual binding [2] [%] | % residual binding [3] [%] | % residual binding [4] [%] | % residual binding [5] [%] | % residual binding [6] [%] | % residual binding [7] [%] | also measured
B1 | 44 | 70 | 74 | 102 | 84 | 92 | 102 | 
B2 |  |  |  |  |  |  |  | Binding relative to wt (%) [8]: 54%; Binding relative to wt (%) [9]: 59%; Binding relative to wt (%) [10]: 115%; Binding relative to wt (%) [11]: 117%; Binding relative to wt (%) [12]: 67%; Binding relative to wt (%) [13]: 12%; Binding relative to wt (%) [14]: 114%; Binding relative to wt (%) [15]: 34%; Binding relative to wt (%) [16]: 100%; Binding relative to wt (%) [17]: 125%; Binding relative to wt (%) [18]: 98%; Binding relative to wt (%) [19]: 122%; Binding relative to wt (%) [20]: 107%; Binding relative to wt (%) [21]: 48%; Binding relative to wt (%) [22]: 21%
B3 | 76 | 77 | 70 | 69 | 83 | 92 | 106 | 
B4 | 13 |  | 49 | 27 | 77 | 97 | 97 | 
B5 | 9 | 95 | 62 | 33 | 81 | 99 | 99 | 
B6 | 76 | 99 | 67 | 63 | 70 | 94 | 87 | 
